For one molecule, Kd results are on record in PMC4949324.

Series [1] has as its target T1, C1 WT (ZF10-13) (mouse, UniProt A2A5K6 845-1337).
T1 sequence: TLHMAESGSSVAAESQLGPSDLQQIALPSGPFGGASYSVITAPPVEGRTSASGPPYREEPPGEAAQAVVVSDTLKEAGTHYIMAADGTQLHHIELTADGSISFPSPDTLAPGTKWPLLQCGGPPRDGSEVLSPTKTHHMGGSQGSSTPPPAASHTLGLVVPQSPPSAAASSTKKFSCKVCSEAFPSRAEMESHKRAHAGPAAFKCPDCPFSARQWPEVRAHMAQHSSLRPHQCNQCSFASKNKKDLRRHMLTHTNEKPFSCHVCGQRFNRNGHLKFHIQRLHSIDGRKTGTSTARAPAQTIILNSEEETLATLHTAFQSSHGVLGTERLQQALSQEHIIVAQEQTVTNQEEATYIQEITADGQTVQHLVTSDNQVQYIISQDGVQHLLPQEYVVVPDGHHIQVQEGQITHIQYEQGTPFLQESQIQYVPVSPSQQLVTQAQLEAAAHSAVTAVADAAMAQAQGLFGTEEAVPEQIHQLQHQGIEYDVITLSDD
Briefly: quantitative EMSA.

The target of series [2] is T2, C1 R1092W (ZF10-13) (mouse, UniProt A2A5K6 845-1337, R1092W).
T2 sequence: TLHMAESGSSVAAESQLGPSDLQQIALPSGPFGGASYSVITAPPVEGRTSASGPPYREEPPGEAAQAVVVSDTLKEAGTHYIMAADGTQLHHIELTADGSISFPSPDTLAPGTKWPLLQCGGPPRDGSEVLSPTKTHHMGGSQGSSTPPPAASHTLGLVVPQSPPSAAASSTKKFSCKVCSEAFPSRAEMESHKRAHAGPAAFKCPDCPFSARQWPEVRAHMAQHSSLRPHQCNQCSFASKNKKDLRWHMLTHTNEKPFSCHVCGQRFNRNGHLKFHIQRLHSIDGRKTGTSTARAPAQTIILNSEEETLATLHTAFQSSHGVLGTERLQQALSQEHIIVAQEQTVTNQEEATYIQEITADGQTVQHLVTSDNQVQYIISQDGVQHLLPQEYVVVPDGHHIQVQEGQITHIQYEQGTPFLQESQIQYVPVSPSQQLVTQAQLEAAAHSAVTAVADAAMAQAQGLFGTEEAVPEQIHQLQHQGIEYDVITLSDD
Briefly: quantitative EMSA. A general note: A gel shift assay detects complexes by their altered migration in electrophoresis.

B1: A2 (dsDNA)
DNA 1: AGTCCGACTCAGGACCCCGACCAAGCTG
DNA 2: CAGCTTGGTCGGGGTCCTGAGTCGGACT
For orientation: Kd means the concentration at which binding is half-saturated. With B1, the dissociation constant (Kd) in series [1] came to 73.4 ± 7.1 nM; in series [2], 1410 ± 117 nM.
